Legend:
[1] = test system: Rat2 cells; test: Count of vinculin- or zyxin-positive focal adhesions per cell; format: cell-based, rat; conditions: Rat2 cells after complete spreading
Experimental: Rat2 cells (ATCC, Manassas, Va.) were plated and allowed to spread for 1.5-2 hours on acid-washed glass coverslips that had been coated overnight at 4° C. with 10 μg/mL fibronectin (Becton Dickinson, Franklin Lakes, N.J.). Cells were fixed with ice-cold 4% paraformaldehyde in PBS for 10 minutes at room temperature. Cells were washed twice with PBS and then permeabilized with 0.2% Triton X-100 in PBS for 3 minutes and washed two more times with PBS. Coverslips were blocked for 30 minutes in 5% BSA (RIA grade)/5% normalized Donkey serum in PBS. All subsequent antibody steps were incubated in 1% BSA/PBS for at least 30 minutes and washes were in PBS. Anti-Mena polyclonal antisera (2197, produced by Gertler laboratory) was used at 1:400, anti-VASP polyclonal antisera (M4, Alexis Corporation, San Diego, Calif.) was used at 1:400, coumarin-phallicidin (Molecular Probes Inc., Eugene, Oreg.) was used at 1:20, anti-vinculin monoclonal antibody (F7g, a kind gift from K. Burridge) was used at 1:20. All secondary antibodies (Texas Red-, Cy5-Donkey anti-rabbit or anti-mouse, Jackson ImmunoResearch Laboratories, Inc., West Grove, Pa.) were used at 1:500. Coverslips were mounted with Fluoromount G (Electron Microscopy Sciences, Fort Washington, Pa.) and viewed on a Zeiss Axiophot microscope equipped with a Deltavision imaging and software system (Applied Precision Inc., Issaquah, Wash.).
Cell-population analysis was undertaken to explore the hypothesis that focal adhesion formation and number are unaffected by overexpression or sequestration of Ena/VASP proteins. Because cell migration depends on adhesion as well as actin polymerization at the leading edge, the various cell populations were analyzed to determine if the assembly, morphology or distribution of focal adhesions was affected. EGFP-Mena overexpressing (the “high ” population), FPPPP-mito (SEQ ID NO: 3) and control cells were each stained after complete spreading with a battery of focal adhesion markers (FAK, vinculin, paxillin, tensin, phosphotyrosine, and zyxin).

[2] = test system: Rat2 fibroblasts; test: Time-lapse videomicroscopy random migration assay (cell speed, polarity); format: cell-based, rat; conditions: Rat2 cells expressing the construct
Experimental: (§1) Cells adapted to microscopy media (Life Technologies, Rockville, Md.) as described above were trypsinized, counted, and resuspended in microscopy media at 7.14×10^3 cells/mL. 1.4 mL (10,000 cells) of this cell suspension was added to a ΔT dish (Bioptechs Inc., Butler, Pa.) that had previously been coated overnight with 10 μg/mL fibronectin (Becton Dickinson) at 4° C. and then blocked with lmg/mL cell-culture-grade BSA (Sigma, St. Louis, Mo.). Cells were allowed to attach and spread for 1 hour at 37° C. before movies were initiated. 10x phase contrast movies were 4.5 hours long with a frame taken every five minutes. A custom time-lapse collection script written in IPLabs was used to automate microscope and camera function. Light was shutter controlled. […] Cell paths were generated from the calculated centroid positions and parameters (speed and membrane flow) were calculated from the resulting path file. Speed was calculated using the Central Difference Method in DIAS, which is equivalent to a root mean squared calculation. […]
Rat 2 cells were exposed to 0, 5 nM, 25 nM, 50 nM, or 500 nM cytochalasin D and motility was measured. One set of cells received no cytochalasin D. Other cells received a low dose of cytochalasin D (e.g. 5 nM or 25 nM) or a high dose of cytochalasin D. (e.g. 500 nM) The motility of the treated cells was assessed using the motility assay described above.

[3] = test system: Rat2 cells; test: Membrane flow (protrusion/retraction, shape change) from digitized movies; format: cell-based, rat; conditions: centroid fixed, independent of translocation
Experimental: as §1, with “controlled. Movies were considered analysis-quality if there were no focus or bubble problems and cells remained alive and dividing throughout the experiment. Once a movie met the quality control criteria, it was transferred into the image analysis program DIAS (Solltech, Inc., Oakdale, Iowa.) and cells were outlined using the Trace on Movie command.” for “controlled.”

[4] = test system: MV^D7 cells; test: Time-lapse videomicroscopy cell speed in Ena/VASP-deficient MV^D7 fibroblasts; format: cell-based, mouse; conditions: MV^D7 cells expressing the construct vs parental MV^D7
Experimental: as §1, with “controlled. Movies were considered analysis-quality if there were no focus or bubble problems and cells remained alive and dividing throughout the experiment. Once a movie met the quality control criteria, it was transferred into the image analysis program DIAS (Solltech, Inc., Oakdale, Iowa.) and cells were outlined using the Trace on Movie command.” for “controlled.”

[5] = test system: Listeria; test: Listeria motility in MVD7 cells expressing Mena constructs; format: cell-based, Listeria monocytogenes; conditions: high expression level, compared with GFP-Mena high (FIG. 11)
Experimental: MVD7 cells were seeded onto a Bioptics dish the night before an experiment, and Listeria was also cultured overnight taking care to not over saturate the bacterial culture. MVD7 cells were then exposed to Listeria. The Bioptics dishes were centrifuged at 500×g for 3 min in a swinging bucket centrifuge to force the bacteria up against the MVD7 cells. The cells were then incubated for 1.5 hrs at 37° C. The plates were washed 3 times with media to remove bacteria not associated with cells. Bacteria were then viewed with 100x phase contrast microscopy. Time-lapse movies were recorded and speeds were quantitated with DIAS software.

B1: APPPP-mito: Control of FPPPP-mito with phenylalanine changed to alanine in each repeat; does not bind Ena/VASP proteins (protein)
chain: VNASDAPPPPTDEELRLALPETPMLLGFNAPATSEPSSFEAPPPPTDEELRLALPETPMLLGFNAPATSEPSSFEAPPPPTEDELEIIRETASSLDSSFTRGDLASLRNAINRHSQNFSDAPPIPTEEELNGRGGRPTSEEFSSLNSGDFTDDENSETTEEEIDRLADLRDRGTGKHSRNAGFLPLNPFASSPVPSLSPKVSKISAPALISDITKKTPFKNPSQPLNVFNKKTTTKTVTKKPTPVKTAPKLAELPATKPQETVLRENKTPFIEKQAETNKQSINMPSLPVIQKEATESDKEEMKPQTEEKMVEESESANNANGKNRSAGIEEGKLIAKSAEDEKAKEEPGNHTTLILAMLAIGVFSLGAFIKIIQLRKNN
modifications: left off: large carriers
[1]
  Number of Focal Adhesions per Cell (±SD), Vinculin+: 81.6 ± 13.9
  Number of Focal Adhesions per Cell (±SD), Zyxin+: 79.2 ± 29

B2: EGFP-Mena: EGFP fused to full-length Mena (amino acids 1-541 of SEQ ID NO: 2), expressed from retroviral vector pMSCV (protein)
chain: MSEQSICQARAAVMVYDDANKKWVPAGGSTGFSRVHIYHHTGNNTFRVVGRKIQDHQVVINCAIPKGLKYNQATQTFHQWRDARQVYGLNFGSKEDANVFASAMMHALEVLNSQEAAQSKVTATQDSTNLRCIFCGPTLPRQNSQLPAQVQNGPSQEELEIQRRQLQEQQRQKELERERMERERLERERLERERLERERLEQEQLERQRQEREHVERLERERLERLERERQERERERLEQLEREQVEWERERRMSNAAPSSDSSLSSAPLPEYSSCQPPSAPPPSYAKVISAPVSDATPDYAVVTALPPTSTPPTPPLRHAATRFATSLGSAFHPVLPHYATVPRPLNKNSRPSSPVNTPSSQPPAAKSCAWPTSNFSPLPPSPPIMISSPPGKATGPRPVLPVCVSSPVPQMPPSPTAPNGSLDSVTYPVSPPPTSGPAAPPPPPPPPPPPPPPPLPPPPLPPLASLSHCGSQASPPPGTPLASTPSSKPSVLPSPSAGAPASAETPLNPELGDSSASEPGLQAASQPAESPTPQGLVLG
modifications: left off: large carriers
[2]
  cell polarity / polarized morphology: distinct lack of polarity
[2]; fibronectin, 4.5 hour movies
  cell speed: cell speeds decreased with increasing levels of EGFP-Mena expression
[1]
  Number of Focal Adhesions per Cell (±SD), Vinculin+: 72.7 ± 14.4
  Number of Focal Adhesions per Cell (±SD), Zyxin+: 73.6 ± 20
[3]
  average membrane flow per unit time (shape change): changed shape the least
[4]
  cell speed: The MV^D7 cells migrated significantly faster than the MV^D7/EGFP-Mena cells
[5]
  Listeria motility (speed): wild-type Listeria are mobile in MVD7 cells that express EGFP-Mena

— US6716597B2, “Methods and products for regulating cell motility” (priority 2000, dated 2004)
